Results published in patent US20230287362.

Target: T1, E. cloacae His6-CD-NTase fused at its C terminus to GFP
T1 chain: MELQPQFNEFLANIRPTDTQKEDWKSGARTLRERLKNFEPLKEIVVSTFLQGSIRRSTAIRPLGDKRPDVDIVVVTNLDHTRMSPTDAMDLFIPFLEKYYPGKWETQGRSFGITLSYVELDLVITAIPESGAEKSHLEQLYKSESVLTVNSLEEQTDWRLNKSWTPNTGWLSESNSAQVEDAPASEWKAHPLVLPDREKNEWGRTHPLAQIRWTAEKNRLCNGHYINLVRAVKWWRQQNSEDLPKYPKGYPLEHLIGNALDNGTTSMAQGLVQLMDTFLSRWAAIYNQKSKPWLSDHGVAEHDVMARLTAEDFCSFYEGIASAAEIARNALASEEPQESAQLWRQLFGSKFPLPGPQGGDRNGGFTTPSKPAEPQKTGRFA

B1: E. cloacae Cap3, residues 17-180 of the annotated gene (protein)
chain: MSIKDVTFSSEGALYTIVISSSTIEQMVSECLKAGVNETGGILIGSYSEDSSTAMIVEATTRPADSLAGRTTFQRGVRGLRPLLHARWKTGLYYVGEWHFHPGGSPEPSGDDFRSMTSIAANSDYQCLEPVMIILGGDPAGSYSLSASVSPRGDAPIRLREVLI
With B1 as the protein, how does the “cleavage of the CD-NTase-GFP model substrate (SDS-PAGE, mass spectrometry)” value read?
The value was “Both Cap3 proteins precisely cleaved the CD-NTase-GFP fusions at the CD-NTase C terminus”.
